# Data: paper PMC9929655 (The Journal of Cell Biology, 2023)
# T1: Sro7 (full length) (yeast, UniProt Q12038 1-1033)
# T1 sequence: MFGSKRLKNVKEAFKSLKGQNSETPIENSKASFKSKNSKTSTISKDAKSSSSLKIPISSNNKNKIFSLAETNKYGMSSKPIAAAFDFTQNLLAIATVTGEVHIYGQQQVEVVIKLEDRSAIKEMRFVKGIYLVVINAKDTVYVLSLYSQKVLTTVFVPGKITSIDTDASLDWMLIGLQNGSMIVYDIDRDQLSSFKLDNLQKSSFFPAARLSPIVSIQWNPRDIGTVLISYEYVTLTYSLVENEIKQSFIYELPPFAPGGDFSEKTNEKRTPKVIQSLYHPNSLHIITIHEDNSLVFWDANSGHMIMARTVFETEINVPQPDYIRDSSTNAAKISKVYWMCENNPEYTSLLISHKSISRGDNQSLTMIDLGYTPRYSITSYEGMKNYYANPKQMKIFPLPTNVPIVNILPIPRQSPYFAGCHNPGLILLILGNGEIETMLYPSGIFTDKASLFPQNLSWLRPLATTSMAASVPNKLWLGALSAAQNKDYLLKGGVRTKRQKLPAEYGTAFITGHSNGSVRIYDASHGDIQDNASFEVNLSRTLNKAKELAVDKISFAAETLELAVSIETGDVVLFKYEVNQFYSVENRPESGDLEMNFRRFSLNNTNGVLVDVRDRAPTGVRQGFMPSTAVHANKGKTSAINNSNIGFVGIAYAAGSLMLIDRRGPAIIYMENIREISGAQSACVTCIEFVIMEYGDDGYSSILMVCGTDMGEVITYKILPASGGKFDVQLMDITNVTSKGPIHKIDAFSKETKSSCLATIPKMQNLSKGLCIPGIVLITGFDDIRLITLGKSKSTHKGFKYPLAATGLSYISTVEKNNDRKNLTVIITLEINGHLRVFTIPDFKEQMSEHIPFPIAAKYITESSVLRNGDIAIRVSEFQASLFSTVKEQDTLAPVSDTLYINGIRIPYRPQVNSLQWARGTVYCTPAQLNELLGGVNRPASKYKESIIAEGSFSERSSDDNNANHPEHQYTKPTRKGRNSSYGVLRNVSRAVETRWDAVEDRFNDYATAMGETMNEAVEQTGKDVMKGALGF
# B1: GST-Exo84 (aa 1–326) (domain or fragment)
# chain: MVEFSLKKARNNWKHVKKSASSPAKQKTPPSPAKPKQKTKKNPYSDLKDPATSYTLPTINARERSRVATSMQRRLSIHNTNYAPPTLDYSMPLPDMPNMIVPNDNVDSSHNNSSFTTENESVSSKGPSNSLNLSTADLSLNDSSYNKVPARSAMRNTVNPSGSNDPFNNSTSLRKMLANPHFNAKDFVHDKLGNASAITIDKFTSNLTDLSIQVQEEVKLNINKSYNEIMTVNNDLNVAMLELKRVRANINDLNEVLDQCTKIAEKRLQLQDQIDQERQGNFNNVESHSNSPALLPPLKAGQNGNLMRRDRSSVLILEKFWDTELD
# What was measured:
# Assay in all cases: pull-down
# Sro7 (full length) = target: T1, Sro7 (full length)
# [1] = target: His-tagged Exo84 (aa 1–326) (S. cerevisiae, UniProt P38261 1-326)
# GST-Exo84 (aa 1–326) = target: B1
binder,measurement,setting,value
B1,binding result,Sro7 (full length),binds
C-terminally tagged GST-Sro7-NT (aa 1–79) (domain or fragment) MFGSKRLKNVKEAFKSLKGQNSETPIENSKASFKSKNSKTSTISKDAKSSSSLKIPISSNNKNKIFSLAETNKYGMSSK,binding result,[1],binds
His-tagged Sro7-NT (aa 1–90) (domain or fragment) MFGSKRLKNVKEAFKSLKGQNSETPIENSKASFKSKNSKTSTISKDAKSSSSLKIPISSNNKNKIFSLAETNKYGMSSKPIAAAFDFTQN,binding result,GST-Exo84 (aa 1–326),binds
